# Data: patent US20080020978A1 (Amgen, published 2008)
# Square brackets hold non-standard residues; d marks the D form. hArg = N=C(N)NCCCC[C@H](N)C(=O)O; Tic = O=C(O)[C@@H]1Cc2ccccc2CN1; Cit = NC(=O)NCCC[C@H](N)C(=O)O
# B1: SEQ ID NO 128 (peptide)
# peptide: Ac-KWVTH[Cit]LAGLLS[Cit]SGGVVRKNFVPTDVGPKAF-NH2
# SMILES: CC(=O)N[C@@H](CCCCN)C(=O)N[C@@H](Cc1c[nH]c2ccccc12)C(=O)N[C@H](C(=O)N[C@H](C(=O)N[C@@H](Cc1c[nH]cn1)C(=O)N[C@@H](CCCNC(N)=O)C(=O)N[C@@H](CC(C)C)C(=O)N[C@@H](C)C(=O)NCC(=O)N[C@@H](CC(C)C)C(=O)N[C@@H](CC(C)C)C(=O)N[C@@H](CO)C(=O)N[C@@H](CCCNC(N)=O)C(=O)N[C@@H](CO)C(=O)NCC(=O)NCC(=O)N[C@H](C(=O)N[C@H](C(=O)N[C@@H](CCCNC(=N)N)C(=O)N[C@@H](CCCCN)C(=O)N[C@@H](CC(N)=O)C(=O)N[C@@H](Cc1ccccc1)C(=O)N[C@H](C(=O)N1CCC[C@H]1C(=O)N[C@H](C(=O)N[C@@H](CC(=O)O)C(=O)N[C@H](C(=O)NCC(=O)N1CCC[C@H]1C(=O)N[C@@H](CCCCN)C(=O)N[C@@H](C)C(=O)N[C@@H](Cc1ccccc1)C(N)=O)C(C)C)[C@@H](C)O)C(C)C)C(C)C)C(C)C)[C@@H](C)O)C(C)C
# B2: SEQ ID NO 655 (peptide)
# peptide: Ac-WVTH[Cit]LAGLLS[Cit]SGGVV[hArg]KNFVPTDVGPF-NH2
# SMILES: CC(=O)N[C@@H](Cc1c[nH]c2ccccc12)C(=O)N[C@H](C(=O)N[C@H](C(=O)N[C@@H](Cc1c[nH]cn1)C(=O)N[C@@H](CCCNC(N)=O)C(=O)N[C@@H](CC(C)C)C(=O)N[C@@H](C)C(=O)NCC(=O)N[C@@H](CC(C)C)C(=O)N[C@@H](CC(C)C)C(=O)N[C@@H](CO)C(=O)N[C@@H](CCCNC(N)=O)C(=O)N[C@@H](CO)C(=O)NCC(=O)NCC(=O)N[C@H](C(=O)N[C@H](C(=O)N[C@@H](CCCCNC(=N)N)C(=O)N[C@@H](CCCCN)C(=O)N[C@@H](CC(N)=O)C(=O)N[C@@H](Cc1ccccc1)C(=O)N[C@H](C(=O)N1CCC[C@H]1C(=O)N[C@H](C(=O)N[C@@H](CC(=O)O)C(=O)N[C@H](C(=O)NCC(=O)N1CCC[C@H]1C(=O)N[C@@H](Cc1ccccc1)C(N)=O)C(C)C)[C@@H](C)O)C(C)C)C(C)C)C(C)C)[C@@H](C)O)C(C)C
# Target: CGRP1 receptor (CRLR/RAMP1 complex) of human neuroblastoma SK-N-MC cells (human, UniProt Q16602 23-461; O60894 27-148)
# Sequence (Q16602 23-461, chain 1 of 2): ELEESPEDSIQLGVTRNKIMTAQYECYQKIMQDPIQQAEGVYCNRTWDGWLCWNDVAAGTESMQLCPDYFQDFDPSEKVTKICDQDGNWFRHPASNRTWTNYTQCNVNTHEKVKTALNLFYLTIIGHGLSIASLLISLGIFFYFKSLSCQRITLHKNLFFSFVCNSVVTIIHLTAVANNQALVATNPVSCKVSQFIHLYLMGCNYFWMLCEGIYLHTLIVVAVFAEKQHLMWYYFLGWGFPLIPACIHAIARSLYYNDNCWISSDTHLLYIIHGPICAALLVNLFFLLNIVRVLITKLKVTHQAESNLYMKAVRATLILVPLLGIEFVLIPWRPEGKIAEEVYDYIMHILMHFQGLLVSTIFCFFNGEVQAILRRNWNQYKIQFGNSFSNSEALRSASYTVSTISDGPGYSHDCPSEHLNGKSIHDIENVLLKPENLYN
# Sequence (O60894 27-148, chain 2 of 2): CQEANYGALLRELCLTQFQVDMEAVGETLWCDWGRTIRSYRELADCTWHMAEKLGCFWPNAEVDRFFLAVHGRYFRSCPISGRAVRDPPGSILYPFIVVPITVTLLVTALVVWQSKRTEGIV
# Assay: cell-based or functional assay
row,Binder,IC50 [nM]
1,B1,13
2,WVTHXLAGLLSXSGGVVRKNFVPTDVGPXAF (Ac-WVTH[Cit]LAGLLS[Cit]SGGVVRKNFVPTDVGP[Tic]AF-NH2) [SEQ ID NO 146],10.1
3,Ac-WVTH[Cit]LAGLLS[Cit]SGGVVRKNFVPTDVG[Tic]FAF-NH2 [SEQ ID NO 141],4.32
4,B2,> 1000
5,Ac-WVTH[Cit]LAGLLS[Cit]SGGVVRKNFVPTDVG[Tic]FAF-NH2 [SEQ ID NO 140],3.02
6,WVTHXLAGLLSXSGGVVXKNXVPTDVGXFAF (Ac-WVTH[Cit]LAGLLS[Cit]SGGVV[hArg]KN[2-Nal]VPTDVG[Oic]FAF-NH2) [SEQ ID NO 137],2.66
7,WVTHXLAGLLSXSGGVVXKNFVPTDVGPFAF (Ac-WVTH[Cit]LAGLLS[Cit]SGGVV[hArg]KNFVPTDVGPFAF-NH2) [SEQ ID NO 653],3.22
8,WVTHXLAGLLSXSGGVVXKNFVPTDVGPXAF (Ac-WVTH[Cit]LAGLLS[Cit]SGGVV[hArg]KNFVPTDVGP[1-Nal]AF-NH2) [SEQ ID NO 144],2.24
9,WVTHXLAGLLSXSGGVVXKNXVPTDVGXFAX (Ac-WVTH[Cit]LAGLLS[Cit]SGGVV[hArg]KN[2-Nal]VPTDVG[Oic]FA[2-Nal]-NH2) [SEQ ID NO 138],3.45
10,WVTHXLAGLLSXSGGVVXKNXVXTDVGXFAX (Ac-WVTH[Cit]LAGLLS[Cit]SGGVV[hArg]KN[2-Nal]V[Oic]TDVG[Oic]FA[2-Nal]-NH2) [SEQ ID NO 139],3.57
11,Ac-WVTH[Cit]LAGLLS[Cit]SGGVV[hArg]KNFVPTDVGPFA-NH2 (not fully specified) [SEQ ID NO 654],> 1000
